Tests used:
[1] = target: 2-domain CD4 (UniProt P01730); assay: ITC, titration of HXBc2 core with sCD4(D1D2) at 37°C, stoichiometry marked at molar ratio 1.0 (CD4/core gp120)
[2] = target: CD4 as used in isothermal titration calorimetry (UniProt P01730); assay: ITC, drawn table of thermodynamic values of CD4-gp120 binding
[3] = target: 2-domain CD4 (UniProt P01730); assay: SPR (Biacore), 2-domain CD4 immobilised, gp120 analyte
[4] = target: 17b antibody; assay: SPR (Biacore); 17b on-rate with CD4 over without CD4
[5] = target: CD4 as used in isothermal titration calorimetry (UniProt P01730); assay: ITC, drawn table of thermodynamic values, column 'Kd (nM) to sCD4'
[6] = target: 2-domain CD4 (UniProt P01730); assay: ITC, titration of HXBc2 core with sCD4(D1D2) at 37°C, value in the box beside the curve

gp120 HXBc2 core, wild type (from UniProt P04578 83-492)
n [1]: 1 | -TΔS [2]: 40 kcal/mol | ΔH [2]: -49.7 kcal/mol | Kd [3]: 0.0295 µM | CD4 Induction [4]: 79.9 | Kd [5]: 0.087 µM | -TΔS [6]: 40 kcal/mol | Kd [6]: 0.117 µM | ΔH [6]: -49 kcal/mol
